Nine molecules from patent US20230381316A1 (published 2023) can be followed below.

The target in one test is PSMA. The experiment in a line: previously reported; previously reported value.
The target of test [1] is T1, purified recombinant human PSMA protein (PSMA extracellular domain, baculovirus-insect cell expression) (UniProt Q04609 44-750). As to the kind of experiment: SPR (Biacore); Bivalent fit.
The target of test [2] is T1, purified recombinant human PSMA protein …. The experiment in a line: SPR (Biacore).
The target is the same in test [3]. As to the kind of experiment: SPR (Biacore); Langmuir fit. Background: In SPR one partner is held on a chip, and binding of the other changes the refractive index at the surface.

T1 sequence (Q04609 44-750): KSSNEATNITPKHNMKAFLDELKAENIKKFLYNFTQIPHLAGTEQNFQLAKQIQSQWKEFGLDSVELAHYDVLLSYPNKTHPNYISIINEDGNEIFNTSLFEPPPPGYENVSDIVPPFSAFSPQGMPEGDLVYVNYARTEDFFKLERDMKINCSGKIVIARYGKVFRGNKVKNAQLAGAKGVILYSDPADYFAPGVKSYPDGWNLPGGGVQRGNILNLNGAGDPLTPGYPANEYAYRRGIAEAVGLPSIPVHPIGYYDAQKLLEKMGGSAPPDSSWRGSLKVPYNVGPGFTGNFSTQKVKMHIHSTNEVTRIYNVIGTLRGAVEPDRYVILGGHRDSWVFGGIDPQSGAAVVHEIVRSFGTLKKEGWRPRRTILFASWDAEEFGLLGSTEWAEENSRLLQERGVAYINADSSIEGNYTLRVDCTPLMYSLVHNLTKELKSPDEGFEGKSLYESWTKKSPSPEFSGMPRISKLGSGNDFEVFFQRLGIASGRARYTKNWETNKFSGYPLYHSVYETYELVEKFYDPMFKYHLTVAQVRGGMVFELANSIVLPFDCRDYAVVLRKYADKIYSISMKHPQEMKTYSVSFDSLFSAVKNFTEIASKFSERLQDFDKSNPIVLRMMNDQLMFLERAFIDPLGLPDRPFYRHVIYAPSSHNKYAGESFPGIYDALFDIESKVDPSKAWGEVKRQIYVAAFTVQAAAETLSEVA

B1: J591 (antibody, V domains shown)
VH: EVQLQQSGPELVKPGTSVRISCKTSGYTFTEYTIHWVKQSHGKSLEWIGNINPNNGGTTYNQKFEDKATLTVDKSSSTAYMELRSLTSEDSAVYYCAAGWNFDYWGQGTTLTVSS
VL: DIVMTQSHKFMSTSVGDRVSIICKASQDVGTAVDWYQQKPGQSPKLLIYWASTRHTGVPDRFTGSGSGTDFTLTITNVQSEDLADYFCQQYNSYPLTFGAGTMLDLK
As for B1, in the test with PSMA, the Kd came to 1.83 nM.

B2: ScFv Fc 445 (antibody)
chain: VQLQQPGAALVRPGASVRLSCKASGYSFTYYWMNWVMQRPGQGLEWIGMIHPSDSETRLSQKFRDKATLTVDKSSSTVYMQLNSPTSDDSAVYYCARDGNFPYYALDYWGQGTSVTVSSGGGGSGGGGSGGGGSDVVLTQAPLSLPVSLGDQASISCRSSQSLEYSNGNTYLHWYLQKPGQSPELLIYTVSNRFSGVPDRFSGSGSGTDFTLKIHRVEAEDLGVYFCSQSTHVPTFGGGTKLEIKR
Turning to B2, the Kd in test [1] amounted to 2.55 nM.

B3: ScFv Fc 446 (antibody, V domains shown)
VH: VKLQESGPGLVAPSQSLSITCTVSGFSLTDYGVSWIRQPPGKGLEWLGVIWSDGNTYYNSPLKSRLSINKDNSKSQVFLKMNSLQTDDSAMYYCARHKVYTMDYWGQGTSVTVSS
VL: TVLTQSPAIMSASPGEKVTMTCRASSSVSSSYLHWYQQKSSASPKLWIYRTSNLASGVPARFSGSGSGTSYSLTISSLEAEDAATYYCQQYSGYPLTFGAGTKLELKR
For the molecule B3, in test [1], the Kd is 1160 nM.

B4: anti-PSMA mouse monoclonal antibody #1366 (antibody, V domains shown)
VH: VKLQESGPGLVAPSQSLSITCTVSGFSLTDYGVSWIRQPPGKGLEWLGVIWSDGNTYYNSPLKSRLSINKDNSKSQVFLKMNSLQTDDSAMYYCARHKVYTMDYWGQGTSVTVSS
VL: TVLTQSPAIMSASPGEKVTMTCRASSSVSSSYLHWYQQKSSASPKLWIYRTSNLASGVPARFSGSGSGTSYSLTISSLEAEDAATYYCQQYSGYPLTFGAGTKLELKR
In the case of B4, the Kd in test [2] and in test [1] was 295 nM each time.

B5: anti-PSMA mouse monoclonal antibody #1207 (antibody, V domains shown)
VH: VKLQQSGPGLVKPSQSLSLTCAVTGYSITSDYAWNWIRKFPGNKLEWMGYISYSGRTTYNPSLESRISITRDTSKNQFFLQLNSVTTEDTATYYCARCYYGSSSRWYGMDYWGRGTSVAVSS
VL: IVLTQSPAIMSASPGVKVTMTCRASSSVDSSYLHWYQQKSGASPQVWIYSTSNLASGVPARFSGSGSGTSYSLTISSVEAEDAATYYCQQYSGYPLTFGGGTKLEIKR
For B5, the Kd in test [2] and in test [1] was 8.13 nM throughout.

B6: ScFv Fc 444 (antibody, V domains shown)
VH: VQLQQSGPELEKPGASVKMSCKASGYSFTGYNVNWVRQNNGKSLEWIGNIDPLHGGTTYNQKFKAKATLTVDRSSSTAYLQLKNLTSEDSAVYYCARSSRFDYWGQGTTLTVSS
VL: DIVMTQSHKFMSTSVGDRVNITCKASQDVGTAVAWYQQKPGQSPKLLIYWASTRHTGVPDRFTGSGSGTDFTLTISNVQSEDLADYFCHQFTSYPFTFGSGTSLEMKR
Turning to B6, the Kd in test [1] was 4.35 nM.

B7: anti-PSMA mouse monoclonal antibody #1352 (antibody, V domains shown)
VH: VKLQQSGPELEKPGASVKISCKASGYSFTGYNVNWVKQSNGKSLEWIGNIDPYHGGTTYNQKFEAKATLTVDKSSSTAYMQLKSLTSEDSAVYYCARSSRFDYWGQGTTLTVSS
VL: DIVMTQSHKFMSTSVGDRVNITCKASQDVGTAVAWYQQKPGQSPKFLIYWASTRHTGVPDRFTGSGSGTDFTLTISNVQSEDLADYFCHQYTSYPFTFGSGTKLEMKR
Take B7: the Kd in test [2] and in test [1] was 1.99 nM each time.

B8: anti-PSMA mouse monoclonal antibody #219 (antibody, V domains shown)
VH: VQLQQSGPELEKPGASVKMSCKASGYSFTGYNVNWVRQNNGKSLEWIGNIDPLHGGTTYNQKFKAKATLTVDRSSSTAYLQLKNLTSEDSAVYYCARSSRFDYWGQGTTLTVSS
VL: DIVMTQSHKFMSTSVGDRVNITCKASQDVGTAVAWYQQKPGQSPKLLIYWASTRHTGVPDRFTGSGSGTDFTLTISNVQSEDLADYFCHQFTSYPFTFGSGTSLEMKR
For B8, the Kd in test [2] and in test [3] was 2.64 nM each time.

B9: anti-PSMA mouse monoclonal antibody #1377 (antibody, V domains shown)
VH: VQLQQPGAALVRPGASVRLSCKASGYSFTYYWMNWVMQRPGQGLEWIGMIHPSDSETRLSQKFRDKATLTVDKSSSTVYMQLNSPTSDDSAVYYCARDGNFPYYALDYWGQGTSVTVSS
VL: DVVLTQAPLSLPVSLGDQASISCRSSQSLEYSNGNTYLHWYLQKPGQSPELLIYTVSNRFSGVPDRFSGSGSGTDFTLKIHRVEAEDLGVYFCSQSTHVPTFGGGTKLEIKR
For the molecule B9, the Kd in test [2] and in test [1] was 18.6 nM throughout.
